Laboratory results taken from publication PMC3375223, “Caspase Inhibitors of the P35 Family Are More Active When Purified from Yeast than Bacteria” (PLoS ONE, 2012).
Several values for one entry are separate records, joined by “and”; a condition that tells them apart may be missing. Equal values may be shown once.

Tests used:
caspase 3 (human) = caspase 3 (human) (UniProt P42574); assay: inhibition of caspase activity on a fluorogenic peptide, inhibition constants by a competitive model; graded concentrations of P35 protein, 30 nM caspase 3, 100 µM Ac-DEVD-AFC; constants of the yeast-purified proteins taken from ref. 22
Sequence of caspase 3 (human) (P42574 whole entry): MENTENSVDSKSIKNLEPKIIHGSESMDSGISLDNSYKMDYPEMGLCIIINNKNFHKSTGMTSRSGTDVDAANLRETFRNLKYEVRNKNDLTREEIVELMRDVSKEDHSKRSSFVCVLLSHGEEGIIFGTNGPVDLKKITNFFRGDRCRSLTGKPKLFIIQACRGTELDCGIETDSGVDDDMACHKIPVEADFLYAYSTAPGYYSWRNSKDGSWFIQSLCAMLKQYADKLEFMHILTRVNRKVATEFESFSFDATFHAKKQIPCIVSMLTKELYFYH

[1] = molecular target: the molecule itself; assay: SEC; Superdex S200 on an ÄKTA purifier, 0.6 ml/min, 20 mM Tris pH 7.4, 50 mM NaCl; sizes by elution against BioRad gel filtration standard
[2] = molecular target: the molecule itself; assay: cross-linking; purified FLAG-tagged MaviP35 incubated in 5 µM BMH for 30 min at room temperature, boiled in loading dye with 5% β-mercaptoethanol, SDS-PAGE and anti-FLAG immunoblot; oligomer sizes by migration against markers
[3] = molecular target: the molecule itself; assay: AUC; sedimentation velocity of gel filtration fractions (yeast 111–215 kDa, bacterial 89–138 kDa), 20°C, PBS, 40,000 rpm, 230 nm; 0.28 and 0.56 µM bacterial fractions, 1.95, 2.23 and 1.39 µM yeast fractions; c(s) and c(M) fits in SEDFIT

Binder | fold more efficient in caspase 3 inhibition (inhibition constants, Figure 1B) than bacterially-purified AcP35 (caspase 3 (human)) | stoichiometry N [1] | stoichiometry N [2] | stoichiometry N [3]
AcP35-FLAG purified from Saccharomyces cerevisiae (natural protein, N-acetylated amino terminus on 13% of the protein) CVIFPVEIDVSQTIIRDCQVDKQTRELVYINKIMNTQLTKPVLMMFNISGPIRSVTRKNNNLRDRIKSKVDEQFDQLERDYSDQMDGFHDSIKYFKDEHYSVSCQNGSVLKSKFAKILKSHDYTDKKSIEAYEKYCLPKLVDERNDYYVAVCVLKPGFENGSNQVLSFEYNPIGNKVIVPFAHEINDTGLYEYDVVAYVDSVQFDGEQFEEFVQSLILPSSFKNSEKVLYYNEASKNKSMIYKALEFTTESSWGKSEKYNWKIFCNGFIYDKKSKVLYVKLHNVTSALNKNVILNTIK | 6 fold | – | – | –
MaviP35-FLAG purified from Escherichia coli (natural protein, N-acetylated amino terminus on 24% of the protein, MaviP35, the P35 orthologue of Maruca vitrata MNPV; full length protein lacking the initiating methionine (by mass spectrometry); expressed from pET23a-MaviP35-FLAG; Same coding region as m2 (excised from pGALL-(HIS3)-MaviP35-FLAG); the host differs; also called bacterially purified MaviP35; bacterially-produced MaviP35; source: E. coli BL21-(DE3)-pLysS, purified (Anti-FLAG M2-agarose, FLAG …)) CVIFPVEIDVSQTVIKDCQVNKQTRELVYINKIMNIELTKPVLMMFNISGPIKSVTRKNNNLRDEIKSEIDKQFDQLERDHSTQFDGGHCIKYFKDEHYSISCQSGNVLKSKFEKILKSHGYTDEKSIEAYKKYCLPKLVDEQNNYYVAVCVLKPGFEKGSNQVLSFEYNPIGNKVIVPFAHEINDTGLYEYDAAAYVDNVKFDGEQQFEKFVQSLTLPSAYDDEEVLYYNETSENKRMMYKALEFKTKSCWGKFEWDYWKIFCNGFIYDEKLKVLYVKLHNVTSRVNNNIILNID | – | 3 | 10 | –
MaviP35-FLAG purified from Saccharomyces cerevisiae (natural protein, N-acetylated amino terminus on 12% of the protein, MaviP35, the P35 orthologue of Maruca vitrata MNPV; full length protein lacking the initiating methionine (by mass spectrometry); expressed from pGALL-(HIS3)-MaviP35-FLAG; also called yeast-purified MaviP35; yeast-isolated MaviP35; source: gel filtration for some experiments; not shown: FLAG, C-terminal, kept) CVIFPVEIDVSQTVIKDCQVNKQTRELVYINKIMNIELTKPVLMMFNISGPIKSVTRKNNNLRDEIKSEIDKQFDQLERDHSTQFDGGHCIKYFKDEHYSISCQSGNVLKSKFEKILKSHGYTDEKSIEAYKKYCLPKLVDEQNNYYVAVCVLKPGFEKGSNQVLSFEYNPIGNKVIVPFAHEINDTGLYEYDAAAYVDNVKFDGEQQFEKFVQSLTLPSAYDDEEVLYYNETSENKRMMYKALEFKTKSCWGKFEWDYWKIFCNGFIYDEKLKVLYVKLHNVTSRVNNNIILNID | – | 2 and 5 | – | 4 and 6 and 8
